This is an account of results in paper doi:10.1101/808618v2.

Assay in all cases: purified protein
Substrate in series [1]: NC(=O)CC[C@H](N)C(=O)O
The following applies: pH 8.5, 25 °C, 20 mM MgCl2, XMP […], ATP 2 mM fixed.

Substrate in series [2]: Nc1ncnc2c1ncn2[C@@H]1O[C@H](COP(=O)(O)OP(=O)(O)OP(=O)(O)O)[C@@H](O)[C@H]1O
The following applies: pH 8.5, 25 °C, 20 mM MgCl2, XMP […], Gln 5 mM fixed.

Substrate in series [3]: O=c1[nH]c(=O)c2ncn([C@@H]3O[C@H](COP(=O)(O)O)[C@@H](O)[C@H]3O)c2[nH]1
The following applies: pH 8.5, 25 °C, 20 mM MgCl2, ATP 2 mM, Gln 5 mM fixed.

B1: PfGMPS (Plasmodium falciparum 3D7) (protein)
chain: MEGEEYDKILVLNFGSQYFHLIVKRLNNIKIFSETKDYGVELKDIKDMNIKGVILSGGPYSVTEAGSPHLKKEVFEYFLEKKIPIFGICYGMQEIAVQMNGEVKKSKTSEYGCTDVNILRNDNINNITYCRNFGDSSSAMDLYSNYKLMNETCCLFENIKSDITTVWMNHNDEVTKIPENFYLVSSSENCLICSIYNKEYNIYGVQYHPEVYESLDGELMFYNFAYNICKCKKQFDPIRYHELELKNIEKYKHDHYVIAAMSGGIDSTVAAAYTHKIFKERFFGIFIDNGLLRKNEAENVYTFLKSTFPDMNITKIDASENFLSNLQGVTDPEQKRKIIGKLFIEEFEKAVNNIDIDINKTFLLQGTLYPDIIESKCSKNLSDTIKTHHNVGGLPKNLKFKLFEPFKYLFKDDVKTLSRELNLPEEITNRHPFPGPGLAIRVIGEINKHKLNILREVDDIFINDLKQYGLYNQISQAFAVLLSSKSVGVRGDARSYDYVCVLRAVKTSSFMTANWYQIPYDILDKITTRILSEVKGVNRILYDVSSKPPATIEFE
Consider B1, for which the Km – broadly, the concentration of substrate that gives half-maximal velocity – stood at 330 ± 20 µM in “purified protein [1]”, 119 ± 2 µM in “purified protein [2]” and 7.1 ± 1 µM in “purified protein [3]”. Also, the kcat (in general, the maximal rate divided by the concentration of active sites) in “purified protein [1]” is 0.766 ± 0.005 s⁻¹; in “purified protein [2]” it was 0.893 ± 0.039 s⁻¹; in “purified protein [3]”, 0.741 ± 0.058 s⁻¹.
